Earlier results on one molecule are cited in patent US5494894A, “Agent for the regulation of the appetite or a sleeping agent” (Erlanson-Albertsson; Charlotte, priority 1986, dated 1996).

The subject of this data set is patients. The conditions noted are these: administered intravenously; cited from earlier work.

B1: cholocystokinin (peptide, UniProt P06307 21-115, looked up)
Cholecystokinin: QPVPPADPAGSGLQRAEEAPRRQLRVSQRTDGESRAHLGALLARYIQQARKAPSGRMSIVKNLQNLDPSHRISDRDYMGWMDFGRRSAEEYEYPS
modifications: Cholecystokinin
notes: hormone which stimulates the secretion of pancreatic enzymes
Take B1: the Feeling of satiety entry is reported as “earlier feeling of satiety”.
